Results as given in patent publication US20130224854A1 (NIPPON KAYAKU, published 2013).

Target: T1, single-chain type IV collagen alpha1 polypeptide (human) (human, UniProt P02462 173-1669, lower proportion of hydroxylated proline and hydroxylated lysine residues than type IV collagen; carries a sugar chain recognized by ABA lectin (positions not given))
T1 construct: mature; Secreted by human cancer cells (HLF, UO31, Lu65A); also called single-chain type IV collagen polypeptide; single-chain COL4
T1 sequence (P02462 173-1669): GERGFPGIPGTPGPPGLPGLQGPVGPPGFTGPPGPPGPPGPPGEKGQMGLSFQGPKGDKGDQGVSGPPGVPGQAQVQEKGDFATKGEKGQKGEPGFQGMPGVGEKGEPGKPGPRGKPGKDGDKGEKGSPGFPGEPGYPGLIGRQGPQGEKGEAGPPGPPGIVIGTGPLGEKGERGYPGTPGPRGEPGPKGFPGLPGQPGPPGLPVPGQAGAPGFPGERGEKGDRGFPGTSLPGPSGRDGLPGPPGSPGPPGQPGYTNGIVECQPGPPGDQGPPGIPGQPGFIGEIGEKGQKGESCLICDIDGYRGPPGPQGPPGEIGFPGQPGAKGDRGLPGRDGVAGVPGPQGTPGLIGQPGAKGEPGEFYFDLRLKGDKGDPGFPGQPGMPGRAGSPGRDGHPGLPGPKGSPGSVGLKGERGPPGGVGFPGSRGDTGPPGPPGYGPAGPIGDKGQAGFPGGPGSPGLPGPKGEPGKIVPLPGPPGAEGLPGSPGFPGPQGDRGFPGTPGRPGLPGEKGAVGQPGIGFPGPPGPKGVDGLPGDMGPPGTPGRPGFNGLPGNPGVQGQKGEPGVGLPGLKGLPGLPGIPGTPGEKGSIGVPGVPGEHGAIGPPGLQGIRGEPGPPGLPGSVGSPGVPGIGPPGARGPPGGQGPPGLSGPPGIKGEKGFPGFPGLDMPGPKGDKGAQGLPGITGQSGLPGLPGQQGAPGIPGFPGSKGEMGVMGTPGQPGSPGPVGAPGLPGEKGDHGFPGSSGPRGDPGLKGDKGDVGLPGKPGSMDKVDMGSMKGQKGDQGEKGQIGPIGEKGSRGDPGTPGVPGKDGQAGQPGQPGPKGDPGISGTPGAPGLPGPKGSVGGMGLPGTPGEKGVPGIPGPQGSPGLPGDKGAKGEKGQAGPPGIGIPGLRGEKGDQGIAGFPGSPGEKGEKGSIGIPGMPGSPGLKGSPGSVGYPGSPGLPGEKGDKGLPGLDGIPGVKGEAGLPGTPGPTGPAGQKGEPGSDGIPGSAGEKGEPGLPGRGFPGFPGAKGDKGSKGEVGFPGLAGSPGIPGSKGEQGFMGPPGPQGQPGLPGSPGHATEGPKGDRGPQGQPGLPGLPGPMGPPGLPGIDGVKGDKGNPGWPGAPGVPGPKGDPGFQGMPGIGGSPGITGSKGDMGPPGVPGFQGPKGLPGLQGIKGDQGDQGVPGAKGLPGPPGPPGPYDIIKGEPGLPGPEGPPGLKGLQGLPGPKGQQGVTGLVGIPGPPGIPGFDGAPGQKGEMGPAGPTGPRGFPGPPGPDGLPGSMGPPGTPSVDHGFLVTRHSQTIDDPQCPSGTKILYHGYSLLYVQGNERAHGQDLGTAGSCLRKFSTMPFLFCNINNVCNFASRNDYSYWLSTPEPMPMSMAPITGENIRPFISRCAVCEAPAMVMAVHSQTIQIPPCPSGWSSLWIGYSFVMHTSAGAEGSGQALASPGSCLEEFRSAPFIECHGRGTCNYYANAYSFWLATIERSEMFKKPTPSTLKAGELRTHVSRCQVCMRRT
Test: competition ELISA at equilibrium in solution (method of Djavadi-Ohaniance), free antibody measured on immobilized antigen
Procedure: The dissociation constant of the purified monoclonal antibody NK46141 was determined by ELISA with reference to the method of Djavadi-Ohaniance L. et al. [Djavadi-Ohaniance L., et al., (1996) In Antibody Engineering (Eds.: McCafferty J., et al.), Chapter 4, pp. 77-97., IRL Press, Oxford.].
In brief, Immunoplate (Nunc; manufactured by Thermo Fisher Scientific Inc.) with the single-chain type IV collagen al polypeptide (antigen) immobilized thereon in advance was prepared. Meanwhile, JK132 and NK46141 having a constant concentration (0.10 μg/ml) were each incubated with varying concentrations of the antigen for a sufficient time until reaching equilibrium. This incubation solution was added to the ELISA wells to determine the amount of free antibodies. Since the antigen-antibody reaction follows the law of mass action, measured values were applied to formula 1 below. X and Y in formula 2 below were determined, and a graph was drawn to determine the dissociation constant from the slope (1/Kd).

B1: monoclonal antibody NK46141 (antibody, V domains shown)
VH: EVQLVESGGGLVKPGGSLKLSCAASGFTFTDYYMYWVRQTPEKRLEWVATISEGGSYTYYPDSVKGRFTISRDNAKNNLYLQMSSLKSEDTAMYYCASPYYGDGGFAYWGQGTLVTVSA
VL: DVLMTQTPLSLPVSLGDQASISCRSSQSIVHSDGNTYLEWYLQKPGQSPRLLIYKVSNRFSGVPDRFSGSGSGTDFTLKISRVEAEDLGVYYCFQGSHVPPTFGGGTKLEIKR
notes: also called anti-single-chain type IV collagen polypeptide antibody; Anti NK-Antigen monoclonal antibody #141
Kd: 34 nM
